Measurements from EP4660205A1 (Beijing Wisdomab Biotechnology Co., Ltd, dated 2025).
Read-outs that look alike come from different tables or passages of the source.

What was measured:
[1] = target: T1, human IL-36R on the cell surface (HEK-Blue IL-36 cells, HaCAT cells, human CD14+ monocytes) (human, UniProt Q9HB29 20-575); assay: cell-based or functional assay
T1 sequence (looked up): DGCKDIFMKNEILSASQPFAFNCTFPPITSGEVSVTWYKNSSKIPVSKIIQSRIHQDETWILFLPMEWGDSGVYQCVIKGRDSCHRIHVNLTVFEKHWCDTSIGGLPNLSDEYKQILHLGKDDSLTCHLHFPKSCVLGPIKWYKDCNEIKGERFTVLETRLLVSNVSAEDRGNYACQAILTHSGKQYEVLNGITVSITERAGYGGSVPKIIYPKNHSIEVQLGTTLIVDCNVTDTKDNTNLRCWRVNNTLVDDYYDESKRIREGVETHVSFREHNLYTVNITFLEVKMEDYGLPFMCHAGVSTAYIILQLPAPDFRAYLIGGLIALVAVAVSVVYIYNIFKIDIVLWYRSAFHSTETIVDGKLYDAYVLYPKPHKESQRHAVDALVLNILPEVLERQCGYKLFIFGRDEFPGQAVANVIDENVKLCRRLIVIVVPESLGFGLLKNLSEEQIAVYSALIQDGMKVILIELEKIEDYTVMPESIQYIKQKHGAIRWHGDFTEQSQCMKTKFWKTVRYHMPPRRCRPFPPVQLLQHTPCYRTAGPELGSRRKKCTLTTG

[2] = target: T1, human IL-36R on the cell surface …; assay: cell-based or functional assay; remark: listed apart in the source
[3] = target: T1, human IL-36R on the cell surface …; assay: cell-based or functional assay; remark: listed apart in the source
[4] = target: T2, hIL-36R-His (extracellular domain of human IL-36R with C-terminal His tag) (human (homo sapiens), UniProt Q9HB29 20-335); assay: SPR (Biacore T200), antibody captured by anti-human Fc, hIL-36R-His as analyte, 1:1 model
T2 construct: also called human hIL-36R-His
T2 sequence: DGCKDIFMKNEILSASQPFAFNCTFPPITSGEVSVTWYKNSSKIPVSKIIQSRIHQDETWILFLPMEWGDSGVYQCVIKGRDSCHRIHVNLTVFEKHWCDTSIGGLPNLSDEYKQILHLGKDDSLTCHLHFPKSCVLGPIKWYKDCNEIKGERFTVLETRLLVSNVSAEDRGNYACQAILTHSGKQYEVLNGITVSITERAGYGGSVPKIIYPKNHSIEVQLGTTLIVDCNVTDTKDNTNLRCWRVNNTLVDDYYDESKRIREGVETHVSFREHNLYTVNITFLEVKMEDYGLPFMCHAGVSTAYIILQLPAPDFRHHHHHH

[5] = target: T3, hIL-1R3-His (extracellular domain of human IL-1R3 with C-terminal His tag) (human (homo sapiens), UniProt Q9NPH3 21-359); assay: SPR (Biacore T200), antibody captured by anti-human Fc, hIL-1R3-His as analyte, 1:1 model
T3 sequence: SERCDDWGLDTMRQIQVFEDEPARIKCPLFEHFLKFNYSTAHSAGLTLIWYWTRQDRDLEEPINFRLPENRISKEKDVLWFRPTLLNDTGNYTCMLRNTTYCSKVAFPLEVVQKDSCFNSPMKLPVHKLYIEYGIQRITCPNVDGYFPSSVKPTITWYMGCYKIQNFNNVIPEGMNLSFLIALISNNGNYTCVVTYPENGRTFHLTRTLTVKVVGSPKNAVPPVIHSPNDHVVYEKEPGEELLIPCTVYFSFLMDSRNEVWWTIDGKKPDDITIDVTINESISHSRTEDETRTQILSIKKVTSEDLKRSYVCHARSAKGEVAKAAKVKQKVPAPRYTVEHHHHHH

[6] = target: T3, hIL-1R3-His (extracellular domain of …); assay: as above; remark: listed apart in the source
[7] = target: T3, hIL-1R3-His (extracellular domain of …); assay: as above; remark: listed apart in the source
[8] = target: T1, human IL-36R on the cell surface …; assay: cell-based or functional assay; remark: listed apart in the source
[9] = target: T2, hIL-36R-His (extracellular domain of …); assay: SPR (Biacore T200), antibody captured by anti-human Fc, hIL-36R-His as analyte, 1:1 model; remark: listed apart in the source
[10] = target: T2, hIL-36R-His (extracellular domain of …); assay: as above; remark: listed apart in the source

B1: Common light chain bispecific antibody (R72B7VH/R1B9VH-h1+L36E9VK) (bispecific antibody, human IgG1, kappa)
heavy 1: QVQLVQSGAEVKKPGASVKVSCKASGYSFTSSWIHWVKQAPGQGLEWMGEINPGNVRSNYNENFRNKVTMTVDTSISTAYMELSRLRSDDTAVYYCTVINYGEPYFASWGQGTLVTVSSASTKGPSVFPLAPSSKSTSEGTAALGCLVKDYFPEPVTVSWNSGALTSGVHTFPAVLQSSGLYSLSSVVTVPSSSLGTQTYICNVDHKPSNTKVDKTVEPKSCDKTHTCPPCPAPEFEGGPSVFLFPPKPKDTLMISRTPEVTCVVVDVSQEDPEVQFNWYVDGVEVHNAKTKPREEQYNSTYRVVSVLTVLHQDWLNGKEYKCKVSNKALPASIEKTISKAKGQPREPQVCTLPPSQEEMTKNQVSLSCAVKGFYPSDIAVEWESNGQPENNYKTTPPVLDSDGSFFLVSKLTVDKSRWQEGNVFSCSVMHEALHNHYTQKSLSLSPGK
heavy 2: EVQLVESGGGLVQPGGSLRLSCAASGFTFSSYAMSWVRQAPGKGLVWVAEISRGGSHTYYPDTVTGRFTISRDNAKNTLYLQMNSLRAEDTAVYYCARSYGNYPFDYWGQGTTVTVSSASTKGPSVFPLAPSSKSTSGGTAALGCLVKDYFPEPVTVSWNSGALTSGVHTFPAVLQSSGLYSLSSVVTVPSSSLGTQTYICNVNHKPSNTKVDKRVEPKSCDKTHTCPPCPAPEFEGGPSVFLFPPKPKDTLMISRTPEVTCVVVDVSHEDPEVKFNWYVDGVEVHNAKTKPREEQYNSTYRVVSVLTVLHQDWLNGKEYKCKVSNKALPASIEKTISKAKGQPREPQVYTLPPCREEMTKNQVSLWCLVKGFYPSDIAVEWESNGQPENNYKTTPPVLDSDGSFFLYSKLTVDKSRWQQGNVFSCSVMHEALHNHYTQKSLSLSPGK
light: EIVLTQSPGTLSLSPGERATLSCRASQSVIGSYLAWYQQKPGQAPRLLIYSASKLASGIPDRFSGSGSGTDFTLTISRLEPEDFAVYYCQQDTRYPITFGQGTKVEIKRTVAAPSVFIFPPSDEQLKSGTASVVCLLNNFYPREAKVQWKVDNALQSGNSQESVTEQDSKDSTYSLSSTLTLSKADYEKHKVYACEVTHQGLSSPVTKSFNRGEC
notes: also called IL-36R×IL-1R3 common light chain bispecific antibody; R72B7/R1B9VH-h1+L36E9VK
B1 was tested, and the “fold increase of activity by IC50 against Spesolimab, IL-36α, HaCAT hIL-8 secretion” value [1] was ~12 fold, the “fold increase of activity by IC50 against Spesolimab, IL-36β, HaCAT hIL-8 secretion” value [1] was ~4 fold and the “fold increase of activity by IC50 against Spesolimab, IL-36γ, HaCAT hIL-8 secretion” value [1] was ~15 fold. For the same binder, the “fold increase of activity by IC50 against Spesolimab, IL-36γ, hIL-8 secretion by human monocytes” value [1] was ~17 fold, the “IC50 for inhibiting IL-36α from inducing hIL-8 secretion by HaCAT cells” value (from here on “IC50 for inhibiting IL-36α”) [2] was 0.00797 nM and the “IC50 for inhibiting IL-36β from inducing hIL-8 secretion by HaCAT cells” value (“IC50 for inhibiting IL-36β” for short) [2] was 0.027 nM. For the same binder, the “IC50 for inhibiting IL-36γ from inducing hIL-8 secretion by HaCAT cells” value (“IC50 for inhibiting IL-36γ … by HaCAT cells” for short) [2] was 0.0453 nM, the “IC50 for inhibiting IL-36γ-induced hIL-8 secretion by human monocytes” value [3] was 0.00171 nM and the Kd [4] was 1.29 nM. The koff [4] was 3.98e-05 s⁻¹, the kon [4] was 30700 M⁻¹ s⁻¹ and the Kd [5] was 1.44 nM. It also gave a koff [5] of 5.53e-05 s⁻¹ and a kon [5] of 38400 M⁻¹ s⁻¹.

B2: R1B9 (mouse anti-human IL-1R3 monoclonal antibody) (antibody, V domains shown)
VH: EVKLVESGGGLVKPGGSLKLSCAASGFTFSSYAMSWVRQSPEKRLEWVAEISRGGSHTYYPDTVTGRFTISRDNAKNTLYLEMTSLRSEDTALYYCARSYGNYPFDYWGQGTTLTVSS
VL: DIVMTQSPAIMSASPGEKVTMTCSASSSVSYMYWYQQKPGSSPRLLIYDTSNLASGVPVRFSGSGSGTSYSLTISRMEAEDAATYYCQQWSSYPLTFGAGTKLEIK
notes: Found as a mouse scFv on phage; it was captured by anti-human IgG (Fc) in SPR and detected with anti-human IgG-FITC, which points to a human Fc; also called mouse IL-1R3 monoclonal antibody R1B9; parent R1B9
Work on B2 yielded a Kd [6] of 1.07 nM, a koff [6] of 0.00011 s⁻¹ and a kon [6] of 103000 M⁻¹ s⁻¹. For the same binder, the Kd [7] was 1.24 nM, the koff [7] was 9.32e-05 s⁻¹ and the kon [7] was 75000 M⁻¹ s⁻¹.

B3: R49E11VH-h3+L26B11VK (antibody, V domains shown)
VH: QVQLVQSGAEVKKPGASVKVSCKASGYSFTSSWIHWVRQAPGQGLEWMGEINPGSGRSNYNENFQGRVTMTVDTSISTAYMELSRLRSDDTAVYYCTVVFYGEPYFPFWGQGTLVTVSS
VL: EIVLTQSPGTLSLSPGERATLSCRASQSVIYSYLAWYQQKPGQAPRLLIYSASKRASGIPDRFSGSGSGTDFTLTISRLEPEDFAVYYCQQHAGIPVTFGQGTKVEIK
notes: Found as a Fab on phage; also called anti-human IL-36R monoclonal antibody; IL-36R monoclonal antibody
In the case of B3, the “IC50 for inhibiting IL-36α” value [8] is reported as 0.0533 nM, the “IC50 for inhibiting IL-36β” value [8] is reported as 0.276 nM and the “IC50 for inhibiting IL-36γ … by HaCAT cells” value [8] is reported as 1.9 nM. The “IC50 for inhibiting IL-36α” value [2] was 0.0559 nM, the “IC50 for inhibiting IL-36β” value [2] was 0.28 nM and the “IC50 for inhibiting IL-36γ … by HaCAT cells” value [2] was 1.58 nM. The “IC50 for inhibiting IL-36γ-induced hIL-8 secretion by human monocytes” value [3] was 0.0677 nM, the Kd [9] was 2.9 nM and the koff [9] was 6.63e-05 s⁻¹. The kon [9] was 22800 M⁻¹ s⁻¹, the Kd [10] was 1.76 nM and the koff [10] was 6.83e-05 s⁻¹. It also gave a kon [10] of 38900 M⁻¹ s⁻¹.
